Experimental data published in publication PMC10397247.

How the values were obtained:
[1] = target: T1, P1A-bH; assay: two-hybrid library CCNG1;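 note: natural log of median RNA to DNA barcode read ratio; higher means stronger binding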
T1 chain: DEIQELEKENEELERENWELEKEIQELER

[2] = target: T2, P5A-bH; assay: two-hybrid library CCNG1;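 note: natural log of median RNA to DNA barcode read ratio; higher means stronger binding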
T2 chain: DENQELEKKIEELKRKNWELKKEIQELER

[3] = target: T3, P8A-bH; assay: two-hybrid library CCNG1;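 note: natural log of median RNA to DNA barcode read ratio; higher means stronger binding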
T3 chain: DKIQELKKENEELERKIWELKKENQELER

[4] = target: T4, P2A-bH; assay: two-hybrid library CCNG1;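 note: natural log of median RNA to DNA barcode read ratio; higher means stronger binding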
T4 chain: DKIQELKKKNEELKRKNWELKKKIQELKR

[5] = target: T5, P12A-bH; assay: two-hybrid library CCNG1;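 note: natural log of median RNA to DNA barcode read ratio; higher means stronger binding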
T5 chain: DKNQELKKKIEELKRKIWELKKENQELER

[6] = target: T6, P6A-bH; assay: two-hybrid library CCNG1;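 note: natural log of median RNA to DNA barcode read ratio; higher means stronger binding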
T6 chain: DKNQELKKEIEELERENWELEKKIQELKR

[7] = target: T7, P4A-bH; assay: two-hybrid library CCNG1
T7 chain: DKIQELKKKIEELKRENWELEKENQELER

[8] = target: T8, P9A-bH; assay: two-hybrid library CCNG1
T8 chain: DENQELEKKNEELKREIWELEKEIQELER

[9] = target: T9, P7A-bH; assay: two-hybrid library CCNG1
T9 chain: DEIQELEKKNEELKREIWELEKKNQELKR

[10] = target: T10, P3A-bH; assay: two-hybrid library CCNG1
T10 chain: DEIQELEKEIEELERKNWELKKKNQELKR

[11] = target: T11, P11A-bH; assay: two-hybrid library CCNG1
T11 chain: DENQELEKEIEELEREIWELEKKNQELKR

[12] = target: T12, P6SC1; assay: two-hybrid library CCNG1
T12 chain: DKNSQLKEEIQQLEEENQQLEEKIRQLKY

[13] = target: T13, P6SC2; assay: two-hybrid library CCNG1
T13 chain: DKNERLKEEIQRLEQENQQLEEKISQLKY

[14] = target: T12, P6SC1; assay: two-hybrid library CCmax; details: mean of both orientations
[15] = target: T13, P6SC2; assay: two-hybrid library CCmax; details: mean of both orientations
[16] = target: T14, P6bHq; assay: two-hybrid library CCNG1
T14 chain: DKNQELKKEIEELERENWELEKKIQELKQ

[17] = target: T15, P8bHq; assay: two-hybrid library CCNG1
T15 chain: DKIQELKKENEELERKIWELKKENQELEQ

[18] = target: T16, P7bHq; assay: two-hybrid library CCNG1
T16 chain: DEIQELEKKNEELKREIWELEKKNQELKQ

[19] = target: T17, P3bHq; assay: two-hybrid library CCNG1
T17 chain: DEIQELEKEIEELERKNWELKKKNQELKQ

[20] = target: T18, P4bHq; assay: two-hybrid library CCNG1
T18 chain: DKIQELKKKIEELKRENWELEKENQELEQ

[21] = target: T19, P5bHq; assay: two-hybrid library CCNG1
T19 chain: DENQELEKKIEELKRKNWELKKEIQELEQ

[22] = target: T20, P1bHq; assay: two-hybrid library CCNG1
T20 chain: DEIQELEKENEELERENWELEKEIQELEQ

[23] = target: T21, P9bHq; assay: two-hybrid library CCNG1
T21 chain: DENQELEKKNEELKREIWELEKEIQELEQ

[24] = target: T22, P11bHq; assay: two-hybrid library CCNG1
T22 chain: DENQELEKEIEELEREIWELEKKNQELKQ

[25] = target: T23, P2bHq; assay: two-hybrid library CCNG1
T23 chain: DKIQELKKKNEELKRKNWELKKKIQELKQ

[26] = target: T24, P12bHq; assay: two-hybrid library CCNG1
T24 chain: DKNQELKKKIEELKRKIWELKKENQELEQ

[27] = target: T25, 4H3070-bH; assay: two-hybrid library CCNG1; details: mean of both orientations
T25 chain: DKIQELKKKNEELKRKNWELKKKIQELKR

[28] = target: T26, 4H2691-bH; assay: two-hybrid library CCNG1
T26 chain: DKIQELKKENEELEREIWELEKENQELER

[29] = target: T27, 4H496-bH; assay: two-hybrid library CCNG1
T27 chain: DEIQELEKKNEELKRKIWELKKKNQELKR

[30] = target: T28, 4H2619-bH; assay: two-hybrid library CCNG1
T28 chain: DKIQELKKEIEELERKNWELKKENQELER

[31] = target: T29, 4H145-bH; assay: two-hybrid library CCNG1; details: mean of both orientations
T29 chain: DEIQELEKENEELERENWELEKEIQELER

[32] = target: T30, 4H3632-bH; assay: two-hybrid library CCNG1
T30 chain: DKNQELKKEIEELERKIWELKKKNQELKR

[33] = target: T31, 4H342-bH; assay: two-hybrid library CCNG1
T31 chain: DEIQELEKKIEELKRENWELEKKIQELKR

[34] = target: T32, 4H1072-bN; assay: two-hybrid library CCNG1
T32 chain: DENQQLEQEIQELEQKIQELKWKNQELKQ

[35] = target: T33, 4H1387-bN; assay: two-hybrid library CCNG1
T33 chain: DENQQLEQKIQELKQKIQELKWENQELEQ

[36] = target: T34, 4H2619-bN; assay: two-hybrid library CCNG1
T34 chain: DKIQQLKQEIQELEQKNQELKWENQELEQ

[37] = target: T35, 4H3601-bN; assay: two-hybrid library CCNG1
T35 chain: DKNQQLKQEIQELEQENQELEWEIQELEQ

[38] = target: T36, 4H1406-bN; assay: two-hybrid library CCNG1
T36 chain: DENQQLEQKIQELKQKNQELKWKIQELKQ

[39] = target: T37, 4H3961-bN; assay: two-hybrid library CCNG1
T37 chain: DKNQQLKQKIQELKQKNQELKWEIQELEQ

[40] = target: T38, 4H1193-bN; assay: two-hybrid library CCNG1
T38 chain: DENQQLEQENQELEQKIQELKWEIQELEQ

[41] = target: T39, 4H3907-bN; assay: two-hybrid library CCNG1
T39 chain: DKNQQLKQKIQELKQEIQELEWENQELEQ

[42] = target: T40, 4H344-bN; assay: two-hybrid library CCNG1
T40 chain: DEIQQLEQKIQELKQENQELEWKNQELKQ

[43] = target: T41, 4H2568-bN; assay: two-hybrid library CCNG1
T41 chain: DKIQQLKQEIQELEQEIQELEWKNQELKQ

[44] = target: T42, 4H3592-bN; assay: two-hybrid library CCNG1
T42 chain: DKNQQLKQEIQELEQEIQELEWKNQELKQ

[45] = target: T43, 4H363-bN; assay: two-hybrid library CCNG1
T43 chain: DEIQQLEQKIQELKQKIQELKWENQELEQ

[46] = target: T44, 4H4038-bN; assay: two-hybrid library CCNG1
T44 chain: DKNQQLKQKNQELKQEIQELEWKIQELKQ

[47] = target: T45, 4H470-bN; assay: two-hybrid library CCNG1
T45 chain: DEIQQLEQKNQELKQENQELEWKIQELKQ

[48] = target: T46, 4H2745-bN; assay: two-hybrid library CCNG1
T46 chain: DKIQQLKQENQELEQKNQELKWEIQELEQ

[49] = target: T47, O16; assay: two-hybrid library CCNG1
T47 chain: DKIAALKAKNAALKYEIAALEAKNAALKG

[50] = target: T48, O7; assay: two-hybrid library CCNG1
T48 chain: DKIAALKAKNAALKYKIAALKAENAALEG

[51] = target: T49, O6; assay: two-hybrid library CCNG1
T49 chain: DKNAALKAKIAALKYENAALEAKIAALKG

[52] = target: T50, O5; assay: two-hybrid library CCNG1
T50 chain: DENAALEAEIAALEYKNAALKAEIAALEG

[53] = target: T51, O3; assay: two-hybrid library CCNG1
T51 chain: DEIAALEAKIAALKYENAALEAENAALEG

[54] = target: T52, O10; assay: two-hybrid library CCNG1
T52 chain: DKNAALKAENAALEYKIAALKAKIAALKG

[55] = target: T53, O9; assay: two-hybrid library CCNG1
T53 chain: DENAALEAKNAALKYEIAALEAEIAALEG

[56] = target: T54, O4; assay: two-hybrid library CCNG1
T54 chain: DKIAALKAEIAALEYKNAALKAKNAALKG

[57] = target: T55, O11; assay: two-hybrid library CCNG1
T55 chain: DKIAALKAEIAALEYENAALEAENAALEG

[58] = target: T56, O8; assay: two-hybrid library CCNG1
T56 chain: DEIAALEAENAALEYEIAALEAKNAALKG

[59] = target: T57, O12; assay: two-hybrid library CCNG1
T57 chain: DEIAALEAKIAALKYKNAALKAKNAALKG

[60] = target: T58, O14; assay: two-hybrid library CCNG1
T58 chain: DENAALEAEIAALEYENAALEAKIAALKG

[61] = target: T59, O13; assay: two-hybrid library CCNG1
T59 chain: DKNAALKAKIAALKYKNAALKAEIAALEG

[62] = target: T60, O2; assay: two-hybrid library CCNG1
T60 chain: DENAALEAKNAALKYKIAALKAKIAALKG

[63] = target: T61, O15; assay: two-hybrid library CCNG1
T61 chain: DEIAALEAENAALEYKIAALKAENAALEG

B1: P11A-bH (peptide)
chain: DENQELEKEIEELEREIWELEKKNQELKR
- interaction score [1]: 1.5
- interaction score [2]: 0.555
- interaction score [3]: 0.165
- interaction score [4]: 0.45
- interaction score [5]: 1.5
- interaction score [6]: 0.692
- interaction score [7]: 1.83
- interaction score [8]: 1.09
- interaction score [9]: 0.921
- interaction score [10]: 0.615
- interaction score [11]: -2.55

B2: P10A-bH (peptide)
chain: DKNQELKKENEELERKIWELKKKIQELKR
- interaction score [1]: 1.06
- interaction score [2]: -0.49
- interaction score [3]: -0.68
- interaction score [4]: -0.586
- interaction score [5]: 1.15
- interaction score [6]: 0.998
- interaction score [7]: 0.192
- interaction score [9]: 0.686
- interaction score [10]: 0.247
- interaction score [11]: -0.118

B3: P5SC2 (peptide)
chain: DENARLEEKIRQLKQKNSQLKEEIQQLEY
- interaction score [12]: 0.383
- interaction score [13]: 0.391
- interaction score [14]: 0.953
- interaction score [15]: 0.811

B4: P11bHq (peptide)
chain: DENQELEKEIEELEREIWELEKKNQELKQ
- interaction score [16]: 0.74
- interaction score [17]: 0.862
- interaction score [18]: -1.22
- interaction score [19]: 1.18
- interaction score [20]: 1.65
- interaction score [21]: 0.352
- interaction score [22]: 0.41
- interaction score [23]: 0.854
- interaction score [24]: 1.25
- interaction score [25]: 0.67
- interaction score [26]: 1.78

B5: 4H145-bH (peptide)
chain: DEIQELEKENEELERENWELEKEIQELER
- interaction score [27]: 1.19
- interaction score [28]: -0.291
- interaction score [29]: -0.316
- interaction score [30]: -0.128
- interaction score [31]: -0.793
- interaction score [32]: -1.44
- interaction score [33]: -0.409

B6: 4H1072-bN (peptide)
chain: DENQQLEQEIQELEQKIQELKWKNQELKQ
- interaction score [34]: 0.692
- interaction score [35]: 0.922
- interaction score [36]: 0.775
- interaction score [37]: -0.0449
- interaction score [38]: -0.693
- interaction score [39]: 0.231
- interaction score [40]: -0.235
- interaction score [41]: 1.91
- interaction score [42]: -0.983
- interaction score [43]: -0.182
- interaction score [44]: 0.235
- interaction score [45]: 1.58
- interaction score [46]: 0.389
- interaction score [47]: 0.0488
- interaction score [48]: -0.0701

B7: O10 (peptide)
chain: DKNAALKAENAALEYKIAALKAKIAALKG
- interaction score [49]: -1.79
- interaction score [50]: -2.17
- interaction score [51]: -2.48
- interaction score [52]: -0.483
- interaction score [53]: -1.83
- interaction score [54]: -2.12
- interaction score [55]: 2.21
- interaction score [56]: -1.67
- interaction score [57]: -1.61
- interaction score [58]: -1.57
- interaction score [59]: -2.06
- interaction score [60]: -2.41
- interaction score [61]: -1.79
- interaction score [62]: -0.272
- interaction score [63]: -1.1

B8: P5SC1 (peptide)
chain: DENSQLEEKISQLKQKNSRLKEEIARLEY
- interaction score [12]: 0.785
- interaction score [13]: -0.371
- interaction score [14]: 1.63
- interaction score [15]: 0.454
